Source: PMC2854372 (The Journal of Cell Biology, 2010)
Values belong to the binder of their own block, whether it stands above or below them.

Assays:
Bbp1-TAP = target: T1, Bbp1-TAP (budding yeast, UniProt Q12365 1-385); assay: pull-down
T1 sequence (looked up): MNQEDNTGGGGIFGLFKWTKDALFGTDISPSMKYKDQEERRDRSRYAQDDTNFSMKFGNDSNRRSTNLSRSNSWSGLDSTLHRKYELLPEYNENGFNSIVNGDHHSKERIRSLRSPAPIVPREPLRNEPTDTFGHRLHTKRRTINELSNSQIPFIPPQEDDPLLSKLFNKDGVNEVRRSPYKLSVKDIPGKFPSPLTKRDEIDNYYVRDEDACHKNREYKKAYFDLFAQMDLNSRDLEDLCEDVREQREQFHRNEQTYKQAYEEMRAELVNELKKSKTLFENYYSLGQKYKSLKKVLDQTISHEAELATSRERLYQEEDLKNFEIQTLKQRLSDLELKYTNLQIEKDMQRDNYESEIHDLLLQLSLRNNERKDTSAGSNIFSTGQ

Kar1 peptide = target: T2, Kar1 peptide (budding yeast)
T2 peptide: KKRELIESKWHRLLFHDKK

- fold binding against GST-Spc29 treated with kinase-dead mps1KD (Bbp1-TAP): 5 fold
B1: GST-Spc29 phosphorylated by 6His-Mps1 (natural protein, budding yeast, UniProt P33419 1-253, looked up)
chain: MDYSNFGNSASKKFQDDTLNRVRKEHEEALKKLREENFSSNTSELGNKKHYRAQERMSSPLHRLSPTGKSDDRKVKSPLDDKLRRQLREGNTRLPPPPFSSYGMPPTNRSNLDRIRRRTSSPVRTDKFASQNVIDDQRLEIKYLERIVYDQGTVIDNLTSRITRLESFILNSISDRGDKNFASLEHSRSFSGFPTNKTYGLQMGGLYENDMPYRRSSDNINKEGAREDRSSQIHIENESTEDILKILSSSFHN
modifications: phosphorylated in vitro by Mps1; sites identified by LC-MS/MS: T18, T159, S187 and T240

- binding result (Bbp1-TAP): binds
B2: GST-Spc29, nonphosphorylated (natural protein, budding yeast, UniProt P33419 1-253, looked up)
chain: MDYSNFGNSASKKFQDDTLNRVRKEHEEALKKLREENFSSNTSELGNKKHYRAQERMSSPLHRLSPTGKSDDRKVKSPLDDKLRRQLREGNTRLPPPPFSSYGMPPTNRSNLDRIRRRTSSPVRTDKFASQNVIDDQRLEIKYLERIVYDQGTVIDNLTSRITRLESFILNSISDRGDKNFASLEHSRSFSGFPTNKTYGLQMGGLYENDMPYRRSSDNINKEGAREDRSSQIHIENESTEDILKILSSSFHN

- fold lower ability to bind than wild-type Cdc31 (Kar1 peptide): ~10 fold
B3: Cdc31-T110D (natural protein, budding yeast, UniProt P06704 1-161, looked up)
chain: MSKNRSSLQSGPLNSELLEEQKQEIYEAFSLFDMNNDGFLDYHELKVAMKALGFELPKREILDLIDEYDSEGRHLMKYDDFYIVMGEKILKRDPLDEIKRAFQLFDDDHDGKISIKNLRRVAKELGETLTDEELRAMIEEFDLDGDGEINENEFIAICTDS
